T1: GFP-9S library array, motif 4 ND N98S;D124H (synthetic construct, N98S;D124H)
T1 chain: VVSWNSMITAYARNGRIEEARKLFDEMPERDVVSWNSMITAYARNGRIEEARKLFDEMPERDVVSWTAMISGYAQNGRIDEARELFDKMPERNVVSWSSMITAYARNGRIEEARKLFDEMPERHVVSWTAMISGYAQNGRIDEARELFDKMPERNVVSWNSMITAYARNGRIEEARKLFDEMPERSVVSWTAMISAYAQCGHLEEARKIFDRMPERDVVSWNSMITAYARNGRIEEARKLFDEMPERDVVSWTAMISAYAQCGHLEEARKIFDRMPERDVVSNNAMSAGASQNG

T2: GFP-9S library array, motif 4 ND N98P;D124R (synthetic construct, N98P;D124R)
T2 chain: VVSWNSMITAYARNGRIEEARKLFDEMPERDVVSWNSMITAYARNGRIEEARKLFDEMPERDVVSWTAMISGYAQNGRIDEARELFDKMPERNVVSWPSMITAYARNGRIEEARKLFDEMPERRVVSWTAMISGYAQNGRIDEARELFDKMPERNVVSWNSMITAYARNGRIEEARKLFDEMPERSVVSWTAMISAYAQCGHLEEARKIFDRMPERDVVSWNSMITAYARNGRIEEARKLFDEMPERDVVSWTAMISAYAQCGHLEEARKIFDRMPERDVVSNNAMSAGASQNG

T3: GFP-9S library array, motif 4 ND N98P;D124P (synthetic construct, N98P;D124P)
T3 chain: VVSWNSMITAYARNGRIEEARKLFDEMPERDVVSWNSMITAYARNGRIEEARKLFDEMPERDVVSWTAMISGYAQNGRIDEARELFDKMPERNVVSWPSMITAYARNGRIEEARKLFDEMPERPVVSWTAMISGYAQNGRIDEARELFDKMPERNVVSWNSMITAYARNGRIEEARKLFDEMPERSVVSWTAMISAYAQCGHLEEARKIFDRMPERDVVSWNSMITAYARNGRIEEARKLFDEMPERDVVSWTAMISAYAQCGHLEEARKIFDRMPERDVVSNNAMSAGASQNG

T4: GFP-9S library array, motif 4 ND N98G;D124Y (synthetic construct, N98G;D124Y)
T4 chain: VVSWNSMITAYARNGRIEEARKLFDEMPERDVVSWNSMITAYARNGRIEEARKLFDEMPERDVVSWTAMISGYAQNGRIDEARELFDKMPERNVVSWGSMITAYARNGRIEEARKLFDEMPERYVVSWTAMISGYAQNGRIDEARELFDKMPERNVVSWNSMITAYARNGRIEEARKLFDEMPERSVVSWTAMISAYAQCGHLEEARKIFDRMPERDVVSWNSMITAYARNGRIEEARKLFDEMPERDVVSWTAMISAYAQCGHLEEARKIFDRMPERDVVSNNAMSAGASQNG

T5: GFP-9S library array, motif 4 ND N98F;D124R (synthetic construct, N98F;D124R)
T5 chain: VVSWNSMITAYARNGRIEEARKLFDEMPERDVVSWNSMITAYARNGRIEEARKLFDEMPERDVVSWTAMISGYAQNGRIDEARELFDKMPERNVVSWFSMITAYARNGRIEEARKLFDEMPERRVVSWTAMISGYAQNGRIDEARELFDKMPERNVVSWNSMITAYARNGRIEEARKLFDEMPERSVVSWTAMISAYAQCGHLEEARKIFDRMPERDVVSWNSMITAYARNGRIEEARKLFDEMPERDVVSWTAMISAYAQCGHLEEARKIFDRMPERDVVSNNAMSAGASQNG


What was measured:
Experiment in all cases: high-throughput RNA pulldown from lysate on Ni-NTA beads; HRP: 50 mM Tris pH 8, 150 mM NaCl, 1 mM beta-mercaptoethanol, 50 ug/ml BSA, 3 ug/ml yeast RNA, 0.5% heparin; ITC and FP: Tris pH 8, 200 mM KCl, 5% glycerol; MST: 50 mM Tris pH 8, 200 mM NaCl, 1 mM DTT, BSA, heparin, 0.05% Tween 20
Details in all cases: tags: N-terminal His-eGFP
[1] = target: T1, GFP-9S library array, motif 4 ND …
[2] = target: T2, GFP-9S library array, motif 4 ND …
[3] = target: T3, GFP-9S library array, motif 4 ND …
[4] = target: T4, GFP-9S library array, motif 4 ND …
[5] = target: T5, GFP-9S library array, motif 4 ND …

Binder | Kd ([1]; label: 5' Cy5) [nM] | Kd ([2]; label: 5' Cy5) [nM] | Kd ([3]; label: 5' Cy5) [nM] | Kd ([4]; label: 5' Cy5) [nM] | Kd ([5]; label: 5' Cy5) [nM] | Kd ([1]; label: 5' IRDye 800CW) [nM] | Kd ([2]; label: 5' IRDye 800CW) [nM] | Kd ([3]; label: 5' IRDye 800CW) [nM] | Kd ([4]; label: 5' IRDye 800CW) [nM] | Kd ([5]; label: 5' IRDye 800CW) [nM]
AUUACACGUGA (ssRNA) [Cy5-rpoA] | 122 | 151 | 273 | 272 | 117 | – | – | – | – | –
AUUAAACGUGA (ssRNA) [IR-rpoA-A] | – | – | – | – | – | 53.5 | 329 | 1420 | 548 | 85.1
AUUAGACGUGA (ssRNA) [Cy5-rpoA-G] | 99.4 | 166 | 326 | 280 | 107 | – | – | – | – | –
AUUAUACGUGA (ssRNA) [IR-rpoA-U] | – | – | – | – | – | 101 | 245 | 561 | 574 | 176
